# The DeepSol protein solubility set
# Experiment: soluble on expression in E. coli; label from the status in PepcDB or PDB records
row,Sequence,soluble on expression in E. coli
1,MGSDKIHHHHHHMTYREYKEPATRAGGIIELPHRTDANRFLASLGVAERATLASHLQLVHVKSGQVLCEPGMALEHVYLPVTTVISIQYASSDGMTLEIAEIGNEGIVSPQLVGTDGASPCRVITCRDGFSYRLGARVLSNLLEESAQTRQAIFRCTHLLMAQAKQISFCSRHHVLKNQLCRWFLLAYDRSRSVEIQVTHSMLAQMLGVRRETVTDAAGDIQKMGLIRQYRSSIILVDLPGLDAQSCGCHAIIREEMKKIQAAPTSASGTLTELRS,not soluble
2,MKGEEKMPSFDIVSEVDLQEARNGVDNAVREVESRFDFRGVEATIELNDANKTIKVLSESDFQVNQLLDILRAKLLKRGIEGASLDVPDEFVHSGKTWYVEAKLKQGIESAVQKKIVKLIKDSKLKVQAQIQGEEIRVTGKSRDDLQSVMALVRGGDLGQPFQFKNFRD,not soluble
3,MLDKLDAALRFQQEALNLRAQRQEVLAANIANADTPGYQARDIDFASELKKVMQRGRDATSVVALTMTSTQHIPAQALTPPTAELQYRIPDQPSLDGNTVDMDRERTQFADNSLQYQMSLSALSGQIKGMMNVLQSGN,not soluble
4,MSSQQQESEASGYNTSASSEFGSLEDSHQFVSPVTRHASKRRAVENVDHLDELMKSSMVLSPEKRLRLNTSNDSNLVRNTARSPDSSMNGRPQTRRSTSSDIEISPRVRAMRSTSGSSMDLVRTVSSFCTDSISPKFFTNHGSTTRKRTENGSIYSRHRLGATFSPLVAGAKRKMATPSQSLKRQEKQSPLESRHGGLRSRGTPQRKLLLCDRLKVLN,not soluble
5,MKVRAQVPTVKNATNFNMVADSKTAVGSTLENLKAAIAGETGAHAKYTAFAKAAREQGYEQIARLFEATAAAELIHIGLEYALVAEMEPGYEKPTVAAPSAYSCDLNLISGANGEIYETSDMYPAFIRKAQEEGNSKAVHVFTRAKLAESVHAERYLAAYNDIDAPDDDKFHLCPICGYIHKGEDFEKCPICFRPKDTFTAY,soluble
6,MSLMHTRYFTPSAQWIVQQLWPETLRFAKIEYLYPFKLRLSGVQIASEPTIELQQMDLWLNPYGLLEQQLEIDSVLIDGANLAHGLPNFTLPESVHLNQLALHNIDWADQGIIARGVSLQIKQPVWDSPQQQLPYGKIQLAADQITIDGEAFNQVLVDANYQAQDSTVYGFSFNWRNSPISGQAEQYPQGWSLINVTLSRLNLNLDEWRHHSLWQTIAPSIYHINSLDLLNSQLTLNGVAWENLNLSVEDYDLRHSLWQQQQAYLSLNADSAQWLATQWVEPSAELTLTPQGIELDGHSQVWQGDVQVKGHITETSLNLAQLTITGVKWIAEQPQDLLPFSQPLPAWQNLQIEHLDINNLQMIQTVNRPFWQASGLNADGKNLQWVKESQWGFWQGQLSVTANSASYAGVLSTQGVLNMRSEQGVWQLTRAFLPLERGYVEAHAKWDLTSLSAPWQLSLDADSLPIGPLQSWFKLPFGLEALADISLTAQGIAGDRTMLAHSLDGQLQLNLRQGLLSLRSDNTLIIQPFELDDLAVSADRGRITITPTPLRGPNLNAQLGGSTDLLEPEQGQWQLTIQQAWADQCLGLSWDFQQAELVSQDCRSAPEGHHHHHH,soluble
7,MGSDKIHHHHHHMQLNPSLIPHSSEQHVDWEKALHGGNDALLTQLAADDDPAAALLELESYINGIYRGSPSPLSKPLPDIRLEVRRALPYVDEIRDRLGWQVRDFDLGLLRLIRGSSTLSPVLGAGVSMDAGAPSWPELVRLMLEETLDKGLEFYESVPAADNPAQPPIEFLPDGTVRTGGTGTWRFEQRVSEVKRYTAEQEQTARNVLAEVKAKGSSTDVETLMHGAQVCYDLCGQHLFRLLTKIIYTRAKEPSEVHRVIAELAQAQEVPVRGPGLFPGWDSIITYNIDALMSEALAEQKIPHAAWAMKGDKLRGNPDELAQKSSWHEPIFHLHGFSPRRLFMITNVRFVFSTSQYLTTYKGPRSRILEAVYDEFLANPVRIALYIGCSFADEAMNGLLREAFAEYPGRYHYALLKWPRDRKGKEPDRSEIAAESAKYLEFGVRPIWFDDFAELPGLIRQLQ,not soluble
8,NSSGVNRVVGNNLDDLALPKLAKDQTNPMTMEELTTRFLRSDSATFDGTVVEVQGFASAAADGTWRLSRYKIYCCAADAMAYTATLETSTSMSSDQWYRVRGVVRVSSAHNPQFPMIEVHNLEAIDTPTEPYL,not soluble
9,EVKLVESGGGLVKPGGSLKLSCAASGFTFNNYVMVWLRQTPEKRLEWVASISRGGSTYYPDSVKGRFTISRDNARNILYLQMSSLRSEDTAMYYCVRGTTIVAGDVWGAGTTVTVSSAKTTPPSVYPLAPGSAAQTNSMVTLGCLVKGYFPEPVTVTWNSGSLSSGVHTFPAVLQSDLYTLSSSVTVPSSTWPSETVTCNVAHPASSTKVDKKIVPRDC,soluble
10,MSTSWRIRIMLTIHAKLVEAMLAQAHKDHPFEICGVIAGPEKSNLPLRLIPMRNAAQSETFFKFDPQEQLQVWREMEARGEEPIVIYHSHTHTPAYPSRTDVQYASQPQSHYVIVPTDPAYGEEIRSFRILDGMVTEERIRMINSYKAEWELSMEAMVALEHHHHHH,soluble
11,MTYFIDVPTMSDLVHDIGVAPFIGELAAALRDDFKRWQAFDKSARVASHSEVGVIELMPVADKSRYAFKYVNGHPANTARNLHTVMAFGVLADVDSGYPVLLSELTIATALRTAATSLMAAQALARPNARKMALIGNGAQSEFQALAFHKHLGIEEIVAYDTDPLATAKLIANLKEYSGLTIRRASSVAEAVKGVDIITTVTADKAYATIITPDMLEPGMHLNAVGGDCPGKTELHADVLRNARVFVEYEPQTRIEGEIQQLPADFPVVDLWRVLRGETEGRQSDSQVTVFDSVGFALEDYTVLRYVLQQAEKRGMGTKIDLVPWVEDDPKDLFSHTRGRAGKRRIRRVA,soluble
12,MNINTDIFKIQSNNVMPSRGKILISEPFLHDVTFGRSVVLLVDHTEEGSMGLIINKPLPLMLNDIIKEFKYIEDIPLHKGGPIGTDTLFYLHTLHEIPGTLPINNGLYLNGDFDAIKKYILQGNPIKGKIRFFLGYSGWECEQLIQEIKENTWIISKEENTYLMNEDIKGMWKEALGKLGSKYETWSRFPQVPSLNLEHHHHHH,not soluble
13,MGSDKIHHHHHHMFEGPIIDARIKSIASGFRAVSVYVDATSAEEGRFDPRLLGEACDCALADGPAWAEAHLASWSDAYAVFGAKPNRTPCSAQALRKRVLKDGTLSTINPIVDLYNAISLKYAVPVGGENFDAYVGRPHLTVADGSETFDTMVNGEAVNDPPLPGEVIWRDDIGVTCRRWNWRQGTRTRLKTLTGRMWFVLEALETMPDDALAEATDAMVGGLNALMPGCKIASQEIAIAG,not soluble
14,SLPNGEGLQLKENSESEGVSCHYWSLFDGHAGSGAAVVASRLLQHHITEQLQDIVDILKNSAVLPPTCLGEEPENTPANSRTLTRAASLRGGVGAPGSPSTPPTRFFTEKKIPHECLVIGALESAFKEMDLQIERERSSYNISGGCTALIVICLLGKLYVANAGDSRAIIIRNGEIIPMSSEFTPETERQRLQYLAFMQPHLLGNEFTHLEFPRRVQRKELGKKMLYRDFNMTGWAYKTIEDEDLKFPLIYGEGKKARVMATIGVTRGLGDHDLKVHDSNIYIKPFLSSAPEVRIYDLSKYDHGSDDVLILATDGLWDVLSNEEVAEAITQFLPNCDPDDPHRYTLAAQDLVMRARGVLKDRGWRISNDRLGSGDDISVYVIPLIHGNKLS,not soluble
15,SLEDYLQGCRAALQESRPLHVVLGNEACDLDSTVSALALAFYLAKTTEAEEVFVPVLNIKRSELPLRGDIVFFLQKVHIPESILIFRDEIDLHALYQAGQLTLILVDHHILSKSDTALEEAVAEVLDHRPIEPKHCPPCHVSVELVGSCATLVTERILQGAPEILDRQTAALLHGTIILDCVNMDLKIGKATPKDSKYVEKLEALFPDLPKRNDIFDSLQKAKFDVSGLTTEQMLRKDQKTIYRQGVKVAISAIYMDLEAFLQRSNLLADLHAFCQAHSYDVLVAMTIFFNTHNEPVRQLAIFCPHVALQTTICEVLERSHSPPLKLTPASSTHPNLHAYLQGNTQVSRKKLLPLLQEALSAYFDSMKIPSGQPETADVSREQVDKELDRASNSLISGLSQDEG,soluble
16,MGSDKIHHHHHHMKKYLTLAASALLLAACSEKPGYEINGTVANTDLNGKYVYLYEYGVQDAAPMDSALVQNGTFTFKGTQSAPALRKLAFAEDVVEPKRAASGENAPFTSVFVLENGKLQAVLDEAASAVSGTPENDGLKALQAQMKTLRADLEKLSADMKSEDKEVVSAAEKKYDEIDQKVTDAVKTYILNNTTKQSAAKLLYDFRYSLDEAAQNEIIAKADSAFKAVPNIDKLMAHLDVLKTVAVGKKFVDFEMADPNGKTHKLSEFVGNGKNIVLIDFWASWCPPCRRDMPNLVAAYKKYKNKGFEIVGISLDSKADAWAKGVKDLNITWTQLSDLQGWKNSGAQLYGVNSIPHTVLVDKDGTIIAKNLHGEEIDAKLQEILK,not soluble
17,RQVQKELGDVLVRLHNPVVLTPTTVQVTWTVDRQPQFIQGYRVMYRQTSGLQATSSWQNLDAKVPTERSAVLVNLKKGVTYEIKVRPYFNEFQGMDSESKTVRTTEE,soluble
18,MSLNKVRLGIIGLGAQGGTYAGFINDNKIANLELGAICDIDPEKRTVAAEKYPNVPFYDNYIDMLESGDVDAIVTTVPHYLHTEIGKEALSRDIHALLEKPGDIYAEKVKEISDLAASKPNLTFGIFFNQRTNPLYQKVKSLIDNGEIGEIRRTNWIITTWWRPQAYYDQSSWRATWSGEGGGVLVNQAPHQIDLLQWLCGLPKKVYANVKYGYQRDLNVDDDVTTVLDYGNGATGVFITCTHDIIGTDRLEITGDKGKILVEDSKKITLKSLNQSETQMNQDMTWEEVAELFKGNGMGDIYKEETFEFESVWGQQHISVLENFTANILDGTPLIAPGSDGINEGHHHHHH,soluble
19,MGSDKIHHHHHHARIVYLNHCYPSPKVITYTDNDTIKLGNYEIKQTGWEWGDGSLLKEKCPDYAYDQTDDGSEYPFDSVRVGFITLSVTKVKDDTTSLDLTSLAFEMGTNGDQYDMELFFALNPTLEALEIKLNAGEDVSFVIPYIMDEQQVSKKDWSRVDKMKLYMVLQYYPQKIRLCCN,not soluble
20,MAFNKVKIVKGSGGWGGPLIIEPTEKKNKVVYVTGGAKPETAVKIAELTGCELIDGFSQGVKDDEIACVIINCGGTLRCGIYPQKKIPTINIMKTGKSGPLAMFIKEDIYVSGVKPTNVEQ,not soluble
21,MSLAKLDETLTMLKDLTDAKGIPGNEREVRQVMKSYIEPFADEVTTDRLGSLIAKKTGAENGPKIMIAGHLDEVGFMVTQITDKGFIRFQTVGGWWAQVMLAQRVTIVTKKGEITGVIGSKPPHILSPEARKKSVEIKDMFIDIGASSREEALEWGVLPGDMIVPHFEFTVMNNEKFLLAKAWDNRIGCAIAIDVLRNLQNTDHPNIVYGVGTVQEEVGLRGAKTAAHTIQPDIAFGVDVGIAGDTPGISEKEAQSKMGKGPQIIVYDASMVSHKGLRDAVVATAEEAGIPYQFDAIAGGGTDSGAIHLTANGVPALSITIATRYIHTHAAMLHRDDYENAVKLITEVIKKLDRKTVDEITYQEGGSHHHHHH,soluble
22,MSLNLVSLRVITDDVARLVGFYERATGLRATWATEDFAELRTPSGTLAIGSTRTVPLFAPGSARPADNRSVIVEFLVDDVDAVHRNLTGFVDEFVREPTTMPWGNRALLFRDPDGNLVNFFTPVTEGHHHHHH,not soluble
